Data: paper PMC13557712, “Nim1-related kinases regulate septin organization and cytokinesis by modulating Hof1 at the cell division site” (eLife, 2026)

Target: T1, GST-Hof1-N-terminus (1–350 aa) (S. cerevisiae, UniProt Q05080 1-350)
T1 construct: Hof1, S. cerevisiae, N-terminal fragment with the F-BAR domain, residues 1-350, amplified from genomic DNA and cloned into pGEX-5X1; also called GST-Hof1^F-BAR; GST-Hof1^(N (1–350)); source: E. coli BL21-DE3, purified on glutathione Sepharose 4B and kept on the resin; not shown: GST, N-terminal, kept
T1 sequence (looked up): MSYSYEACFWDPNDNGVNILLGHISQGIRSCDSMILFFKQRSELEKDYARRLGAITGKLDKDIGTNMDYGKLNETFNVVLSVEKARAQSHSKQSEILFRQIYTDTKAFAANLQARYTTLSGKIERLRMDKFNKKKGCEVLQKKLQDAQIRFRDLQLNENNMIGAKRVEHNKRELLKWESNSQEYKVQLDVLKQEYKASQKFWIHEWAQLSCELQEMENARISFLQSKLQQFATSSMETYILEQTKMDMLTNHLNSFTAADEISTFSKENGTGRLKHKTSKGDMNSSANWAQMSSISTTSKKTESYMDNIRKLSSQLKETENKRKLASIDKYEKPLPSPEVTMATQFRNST
Assay: pull-down; GST-Hof1 (1-350) (~3 µg) on glutathione beads mixed with ~1 µg 6His-bdSUMO-Gin4-KA1; PBS, 0.2% NP-40, 1 hr at 4°C; washed with PBS, 1% NP-40; western blot with anti-His and anti-GST
Conditions: both partners purified

binding result: binds
B1: 6His-bdSUMO-Gin4-KA1 (1003–1142 aa) (domain or fragment, S. cerevisiae, UniProt Q12263 1003-1142, looked up)
chain: GSQAKDHSKDHLKEHKQDKNTAIGNGSFFRKFSKSSDKTMELYAKISAKQLFNGLEKLLRGWTQYGLKNIKSHPNNLTLTGKLSSDNIFSLRSTLFEVNIYPRGKMSVVQFKKVSGSFKAVKKLVNEVENVLNKEGVLQK
notes: also called 6xHis-bdSUMO-Gin4^KA1; source: E. coli BL21-DE3, purified (Ni-NTA, buffer exchange); not shown: His6, N-terminal, kept; bdSUMO, N-terminal, kept
